Test results from patent US20230348630A1 (BEIJING MABWORKS BIOTECH, published 2023).
Like-named read-outs stand apart in the source and are kept apart here.

B1: anti-CD3/BCMA bispecific antibody MBS305-M-KIH (bispecific antibody, human IgG1, kappa, L234A L235A, N297A)
heavy 1: QVQLVQSGAEVKKPGASVKVSCKASGYTFTNHIIHWVRQAPGQGLEWMGYINPYPGYHGYNDKFSGRATMTSDTSTSTVYMELSSLRSEDTAVYYCARDGYYRDQDVLDYWGQGTLVTVSSASTKGPSVFPLAPSSKSTSGGTAALGCLVKDYFPEPVTVSWNSGALTSGVHTFPAVLQSSGLYSLSSVVTVPSSSLGTQTYICNVNHKPSNTKVDKKVEPKSCDKTHTCPPCPAPEAAGGPSVFLFPPKPKDTLMISRTPEVTCVVVDVSHEDPEVKFNWYVDGVEVHNAKTKPREEQYASTYRVVSVLTVLHQDWLNGKEYKCKVSNKALPAPIEKTISKAKGQPREPQVYTLPPSREEMTKNQVSLSCAVKGFYPSDIAVEWESNGQPENNYKTTPPVLDSDGSFFLVSKLTVDKSRWQQGNVFSCSVMHEALHNHYTQKSLSLSPGK
light 1: not shown
heavy 2: QVQLVQSGAEVKKPGASVKVSCKASGYTFTNHIIHWVRQAPGQGLEWMGYINPYPGYHGYNDKFSGRATMTSDTSTSTVYMELSSLRSEDTAVYYCARDGYYRDQDVLDYWGQGTLVTVSSGGGGSGGGGSGGGGSGGGGSDIQMTQSPSSLSASVGDRVTITCKASQDISQYLNWYQQKPGKAPKLLIYYTSGLHPGVPSRFSGSGSGTDFTFTISSLEPEDEATYYCQQGYALPWTFGQGTKLTAKRGGGGSGGGGSGGGGSEVQLVESGGGLVQPGRSLRLSCAASGFTFDSYSMHWVRQAPGKGLEWVSGISWNSGSLGYADSVKGRFTISRDNAKKSLYLQMNSLRAEDTALYYCAKDRSGYGHYYYGMDVWGQGTTVTVASASTKGPSVFPLAPSSKSTSGGTAALGCLVKDYFPEPVTVSWNSGALTSGVHTFPAVLQSSGLYSLSSVVTVPSSSLGTQTYICNVNHKPSNTKVDKKVEPKSCDKTHTCPPCPAPEAAGGPSVFLFPPKPKDTLMISRTPEVTCVVVDVSHEDPEVKFNWYVDGVEVHNAKTKPREEQYASTYRVVSVLTVLHQDWLNGKEYKCKVSNKALPAPIEKTISKAKGQPREPQVYTLPPSREEMTKNQVSLWCLVKGFYPSDIAVEWESNGQPENNYKTTPPVLDSDGSFFLYSKLTVDKSRWQQGNVFSCSVMHEALHNHYTQKSLSLSPGK
light 2: not shown
B2: anti-CD3D&E antibody D1E9, full-length human IgG1 (L234A/L235A/N297A)/kappa (antibody, V domains shown)
VH: EVQLVESGGGLVQPGRSLRLSCAASGFTFDDFAMHWVRQAPGKGLEWVSGITWNSGSVGYADSVKGRFTISRDNAKKSLYLQMNSLRAEDTALYYCAKDRSGYGHYYYGMDVWGQGTTVTVAS
VL: EIVMTQSPATLSVSPGERATLSCRASTSVSHNVAWYQQKPGQAPRLLIYGASTKVTGIPARFSGSGSGTEFTLTISSLQSEDFAVYYCQHYINWPLTFGGGTKVEIKR
B3: anti-CD3D&E antibody D12A4, full-length human IgG1 (L234A/L235A/N297A)/kappa (antibody, V domains shown)
VH: EVQLVESGGGLVQPGRSLRLSCAASGFTFGDYAMHWVRQAPGKGLEWVSGISWNHGHIGYADSVKGRFTISRDNAKKSLYLQMNSLRAEDTALYYCAKDNSGYGHYYYGMDVWGQGTTVTVAS
VL: EIVMTQSPATLSVSPGERATLSCRASRSVSRNLAWYQQKPGQAPRLLIYGASTKPTGIPARFSGSGSGTEFTLTISSLQSEDFAVYYCQHYTNWPLRFGGGTKVEIKR

What was measured:
[1] = target: T1, BCMA-his protein (Cat #: BCA-H522y, ACRO) (human, UniProt Q02223 1-54); assay: ELISA, coated BCMA protein
T1 construct: Bought recombinant protein; the construct is most likely only a soluble part of it; also called BCMA protein; human BCMA
T1 sequence: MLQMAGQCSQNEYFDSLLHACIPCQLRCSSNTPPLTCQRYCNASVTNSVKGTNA
Protocol: Briefly, an ELISA plate was coated with 100 μl 1 μg/ml BCMA protein (Cat #: BCA-H522y, ACRO) in PBS overnight at 4° C. Then, the plate was blocked with 250 μl PBST with 4% skimmed milk at room temperature for 1 h. […] The negative control well was added with PBST instead of the antibody. The plate was washed with PBST for three times, added with 100 μl HRP conjugated goat anti-human IgG (1:7000, Cat #: 31413, thermofisher), and incubated at room temperature for 1 h. The plate was washed again with PBST for four times, added with 100 μl freshly prepared TMB (Cat #: 555214, BD, USA), and left still for color development, which was terminated with 50 μl 10% H₂SO₄. The absorbance was read at 450 nm, and the data was processed and analyzed using GraphPad.
(§1) The purified bispecific antibodies were tested for their binding capability to recombinant human CD3 and human BCMA proteins by ELISA, following the protocols in Example 4 and Example 9.

[2] = target: T1, BCMA-his protein (Cat #: BCA-H522y, …); assay: SPR (BIAcore 8K), protocol of Example 5
Protocol: (§2) Following the protocols in Example 5 and Example 10, the bispecific antibodies of the disclosure were tested for their binding affinity to CD3D&E and human BCMA.

[3] = target: T2, human BCMA on HEK293A/human BCMA cells (human, UniProt Q02223 1-184); assay: flow cytometry on HEK293A/human BCMA cells
T2 sequence: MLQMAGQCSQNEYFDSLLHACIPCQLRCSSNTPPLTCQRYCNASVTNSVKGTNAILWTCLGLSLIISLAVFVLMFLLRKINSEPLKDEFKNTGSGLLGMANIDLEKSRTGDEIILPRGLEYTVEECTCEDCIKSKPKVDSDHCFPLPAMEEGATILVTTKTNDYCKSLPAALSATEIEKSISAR
Protocol: (§3) The anti-BCMA antibody's binding capability to cell surface BCMAs was tested by FACS. Briefly, HEK293A/human BCMA cells, HEK293A/monkey BCMA cells and HEK293A/mouse BCMA cells, as generated in Example 1, were collected, digested with trypsin, and subjected to centrifugation at 300 g for 5 min. The cells were suspended in PBS, and subjected to centrifugation again. The cells were re-suspended in PBS with 2% FBS at the cell density at 4×10⁶/ml, and 50 μl cells were seeded onto a U-bottom plate. […] The plate was washed with 2% FBS-PBS for three times, added with 50 μl PE-labeled goat-anti-human IgG (H+L) (1: 500), and incubated at room temperature for 45 min. The plate was washed with 2% FBS-PBS again for three times, and added with 150 μl 2% FBS-PBS to suspend the cells. The plate was measured for cell fluorescence using a cytometry, and the data was processed with FlowJo and analyzed with GraphPad.
(§4) Following the protocol of Example 6, the bispecific antibodies of the disclosure were tested for their binding capability to the HEK293A/human BCMA cells, HEK293A/monkey BCMA cells, and HEK293A/mouse BCMA cells as generated in Example 1.

[4] = target: T3, mouse BCMA on HEK293A/mouse BCMA cells (mouse, UniProt O88472 1-185); assay: flow cytometry on HEK293A/mouse BCMA cells [continued) E]
T3 sequence: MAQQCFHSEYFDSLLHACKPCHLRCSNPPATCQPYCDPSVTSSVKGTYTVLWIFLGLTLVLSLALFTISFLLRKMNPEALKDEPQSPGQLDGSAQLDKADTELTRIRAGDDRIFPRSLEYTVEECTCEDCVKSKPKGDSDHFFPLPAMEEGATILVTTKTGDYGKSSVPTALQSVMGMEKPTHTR
Protocol: as §3, §4

[5] = target: T4, CD3D&E protein (Cat #: CT038-H2508H, Sino Biological) (human, UniProt P04234 22-105; P07766 23-126); assay: SPR (BIAcore 8K), protocol of Example 10
T4 construct: Bought complex of the delta and epsilon chains; also called CD3D&E complex; human CD3D&E complex
T4 sequence (P04234 22-105, form in doubt, chain 1 of 2): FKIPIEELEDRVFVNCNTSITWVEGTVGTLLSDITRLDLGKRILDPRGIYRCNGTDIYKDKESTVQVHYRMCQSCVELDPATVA
T4 sequence (P07766 23-126, form in doubt, chain 2 of 2): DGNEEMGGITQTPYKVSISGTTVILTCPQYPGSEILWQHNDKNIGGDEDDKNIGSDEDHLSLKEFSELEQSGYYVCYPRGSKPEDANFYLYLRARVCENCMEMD
Protocol: as §2

[6] = target: T4, CD3D&E protein (Cat #: CT038-H2508H, …); assay: ELISA, coated CD3D&E
Protocol: as §1

CD3 on Jurkat cells [7] = target: T5, CD3 on Jurkat cells (UniProt P04234 22-171; P07766 23-207); assay: flow cytometry on Jurkat cells
T5 construct: whole, on cells
T5 sequence (P04234 22-171, chain 1 of 2): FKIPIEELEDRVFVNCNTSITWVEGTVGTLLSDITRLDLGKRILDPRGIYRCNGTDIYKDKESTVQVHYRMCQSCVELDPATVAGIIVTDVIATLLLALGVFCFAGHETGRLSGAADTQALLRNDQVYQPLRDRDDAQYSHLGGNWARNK
T5 sequence (P07766 23-207, chain 2 of 2): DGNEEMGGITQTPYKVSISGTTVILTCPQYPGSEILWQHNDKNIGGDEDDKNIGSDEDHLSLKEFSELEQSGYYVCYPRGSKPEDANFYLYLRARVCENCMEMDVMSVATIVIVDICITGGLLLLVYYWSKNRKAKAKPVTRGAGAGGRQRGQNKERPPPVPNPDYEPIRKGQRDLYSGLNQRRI
Protocol: (§5) Jurkat cells were collected, centrifuged at 300 g for 5 min, and suspended in PBS. After another centrifugation, the cells were suspended in 2% FBS-PBS at the cell density of 3×10⁶/ml, and […] were plated onto a U-bottom plate. The plate was added with 50 μl serially diluted anti-CD3 antibodies of the disclosure in 2% FBS-PBS (4-fold dilution, starting at 20 μg/ml), and incubated at room temperature for 1 h. The plate was washed with 2% FBS-PBS for three times, added with 50 μl PE-labeled goat-anti-human IgG (H+L) (1: 500), and incubated at room temperature for 45 min. The plate was washed with 2% FBS-PBS again for three times, and added with 150 μl 2% FBS-PBS to suspend the cells. The plate was measured for cell fluorescence using a cytometry, and the data was processed with FlowJo and analyzed with GraphPad.
Following the protocol of Example 11, the bispecific antibodies of the disclosure were tested for their binding capability to Jurkat cells.

[8] = target: monkey BCMA on HEK293A/monkey BCMA cells (monkey, UniProt Q02223 1-184 (human entry)); assay: flow cytometry on HEK293A/monkey BCMA cells
Sequence of monkey BCMA on HEK293A/monkey BCMA cells (Q02223 other isoform, or with tags, fused parts or gaps): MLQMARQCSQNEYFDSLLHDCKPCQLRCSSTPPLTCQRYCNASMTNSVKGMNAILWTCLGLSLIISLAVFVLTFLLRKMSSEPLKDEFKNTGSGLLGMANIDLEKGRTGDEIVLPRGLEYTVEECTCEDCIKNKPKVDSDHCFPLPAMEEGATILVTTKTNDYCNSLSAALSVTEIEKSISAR
Protocol: as §3, §4

[9] = target: T4, CD3D&E protein (Cat #: CT038-H2508H, …); assay: SPR (BIAcore 8K), antibody captured by anti-human Fc, CD3D&E as analyte
Protocol: Briefly, the mouse anti-human Fc antibodies were coupled to a CM5 biosensor chip. The anti-CD3 antibodies of the disclosure in the HBS-EP buffer (Cat #: BR-1006-69, GE Life Sciences) at the concentration of 1 μg/ml was flowed through the chip, where about 100 RU of the antibodies were captured by the mouse anti-human Fc antibodies. Serially diluted CD3D&E molecules (Cat #: CT038-H2508H, Sino Biological) in the HBS-EP buffer (Cat #: BR-1006-69, GE Life Sciences) (2-fold dilution starting at 20 μg/ml) were respectively flowed through the chip. Chip regeneration was performed with 3 M MgCl₂.

CD3 on Jurkat cells [10] = target: T5, CD3 on Jurkat cells; assay: flow cytometry on Jurkat cells; remark: listed apart in the source
Protocol: as §5

[11] = target: T4, CD3D&E protein (Cat #: CT038-H2508H, …); assay: ELISA, coated CD3D&E; remark: listed apart in the source
[12] = target: T6, CD3E protein (Cat #: 10977-H08S, Sino Biological) (UniProt P07766 23-126); assay: SPR (BIAcore 8K), CD3E coupled to the chip, antibody as analyte
T6 construct: also called CD3ε
T6 sequence (P07766 23-126 limits assumed, stated change not applied): as the sequence (P07766 23-126, form in doubt, chain 2 of 2) above
Protocol: For the test regarding binding affinity to CD3E (Cat #: 10977-H08S, Sino Biological), the CD3E molecules were coupled to a CMS biosensor chip, where about 200 RU of the molecules bound to the chip. The anti-CD3 antibodies of the disclosure diluted with the HBS-EP buffer (Cat #: BR-1006-69, GE Life Sciences) at 120 μg/ml were respectively flowed through the chip. Chip regeneration was performed with pH1.5 Gly-HCl.

| Binder | EC50 [1] [µg/mL] | Kd [2] [nM] | EC50 [3] [µg/mL] | binding result [4] | Kd [5] [nM] | EC50 [6] [µg/mL] | EC50 (CD3 on Jurkat cells [7]) [µg/mL] | EC50 (read off the curve) (CD3 on Jurkat cells [7]) [µg/mL] | EC50 [8] [µg/mL] | Kd [9] [nM] | EC50 (CD3 on Jurkat cells [10]) [µg/mL] | EC50 [11] [µg/mL] | binding result [12] |
| --- | --- | --- | --- | --- | --- | --- | --- | --- | --- | --- | --- | --- | --- |
| B1 | 0.0137 | 0.105 | 0.199 | no binding (tested: about 30000 ng/ml (LOG10 about 4.5)) | 37.9 | 0.089 | 0.00106 | ~1 | 0.23 | – | – | – | – |
| B2 | – | – | – | – | – | – | – | – | – | 120 | 0.0837 | 0.0879 | no binding (tested: 120 µg/ml) |
| B3 | – | – | – | – | – | – | – | – | – | 357 | 0.11 | 0.0226 | no binding (tested: 120 µg/ml) |
